Data: publication PMC6246682, “Structural Basis of Tau Interaction With BIN1 and Regulation by Tau Phosphorylation” (Frontiers in Molecular Neuroscience, 2018)

Biological target: T1, BIN1 SH3 domain (UniProt O00499 513-593)
T1 construct: C-terminal SH3 domain of bridging integrator-1 (BIN1, amphiphysin 2); printed residues E556, E557, W562, F588 fit the 593-residue BIN1 isoform 1; Used 15N-labelled in the titrations and relaxation experiments; Construct limits, host and tags are in Malki et al., 2017; PDB 5i22 is a cited NMR structure of BIN1 SH3 in a complex, used as the starting point of the docking; also called SH3 domain of …
T1 sequence: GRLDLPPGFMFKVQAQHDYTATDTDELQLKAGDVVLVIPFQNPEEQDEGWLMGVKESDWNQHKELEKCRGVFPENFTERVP
Experiment: NMR titration; 70 μM 15N-BIN1 SH3 titrated with unlabeled Tau (210–240) peptides (35 to 840 μM); 1H,15N HSQC chemical shift changes; 50 mM phosphate buffer pH 7.3, 20°C; Kd averaged over 7 resonances
Conditions: both partners purified

Kd: 429 ± 94 µM
B1: Tau (210–240) peptide with K224 and K225 mutated into alanines (peptide, UniProt P10636-8 210-240, looked up)
peptide: SRTPSLPTPPTREPAAVAVVRTPPKSPSSAK
notes: Tau residues 210-240 with K224A and K225A; probably as m2; also called the mutated peptide
